From patent publication US20030190739A1, “Tankyrase2 materials and methods” (priority 1999, published 2003)

Experiment: Poly(ADP-ribose) polymerase activity assay (32P-NAD+, SDS-PAGE, autoradiography)
Assay type: biochemical
Conditions: 250 ng protein, 10 min at room temperature, 2.5 μM unlabeled NAD+
Procedure: For poly(ADP-ribose) polymerase activity assays, reagents were obtained from Sigma unless otherwise indicated. PARP1A/TANK2B (250 ng) protein was incubated for 10 min at room temperature in Assay buffer (total volume of 20 μL) [100 mM Tris-HCl, pH 8.0, 10 mM MgCl2, 10% glycerol, 1.5 mM DTT (Boehringer Mannheim/Roche Molecular Biochemicals), 2.5 μM unlabeled NAD^+, 16.7 μg/mL E. coli Strain B DNA, and 0.33 μCi γ-[^32P]-NAD^+ (NEN, Boston, Mass.). Reactions were stopped by boiling in SDS running buffer and separated by SDS-polyacrylamide gel electrophoresis (SDS-PAGE). Autoradiography was used to visualize labeled protein. Addition of poly(ADP-ribose) polymers to protein substrate results in an increase in molecular weight of the protein, and consequently causes the protein to run higher on SDS PAGE. Also, the level of poly(ADP-ribose) polymers added to the protein substrate can vary with each single protein molecule, resulting in labeled proteins with different molecular weights, which appears on the autoradiography film as a ladder or smear [for example, see Smith et al. Science 282:2484-7 (1998)]. […] The PARP1A/TANK2B poly(ADP-ribose) polymerase reaction produced a ladder of labeled protein from approximately 136 kDa to 250 kDa.

Question: For “PARP1A/TANK2B: Fusion protein containing aa 1-662 of PARP1 fused upstream of aa 996-1385 of TANK2 (SEQ ID NO:178)”, which “intrinsic poly(ADP-ribose) polymerase activity” value is on record?
Answer: possessed intrinsic poly(ADP-ribose) polymerase activity
